Changes are numbered by the printed parent chain. In names and notes the source's numbering stands. One block for each binder: values may come before it.
Experiments:
[1] = target: single chain FcRn-β2m-his (human scFcRn, Acro Biosystems Cat. No. FCM-H5286) (human) (UniProt P55899); assay: SPR, antibody on CM5 chip, scFcRn 400-25 nM, pH 5.8 PBS
[2] = target: single chain FcRn-β2m-his (human scFcRn, Acro Biosystems Cat. No. FCM-H5286) (human) (UniProt P55899); assay: SPR, antibody on CM5 chip, scFcRn, pH 5.8
[3] = target: single chain FcRn-β2m-his (human scFcRn, Acro Biosystems Cat. No. FCM-H5286) (human) (UniProt P55899); assay: SPR, antibody on CM5 chip, scFcRn 400-25 nM, pH 5.8 PBS, 1:1 Langmuir

Chain of single chain FcRn-β2m-his (human scFcRn, Acro Biosystems Cat. No. FCM-H5286) (human) (P55899 other isoform, or with tags, fused parts or gaps): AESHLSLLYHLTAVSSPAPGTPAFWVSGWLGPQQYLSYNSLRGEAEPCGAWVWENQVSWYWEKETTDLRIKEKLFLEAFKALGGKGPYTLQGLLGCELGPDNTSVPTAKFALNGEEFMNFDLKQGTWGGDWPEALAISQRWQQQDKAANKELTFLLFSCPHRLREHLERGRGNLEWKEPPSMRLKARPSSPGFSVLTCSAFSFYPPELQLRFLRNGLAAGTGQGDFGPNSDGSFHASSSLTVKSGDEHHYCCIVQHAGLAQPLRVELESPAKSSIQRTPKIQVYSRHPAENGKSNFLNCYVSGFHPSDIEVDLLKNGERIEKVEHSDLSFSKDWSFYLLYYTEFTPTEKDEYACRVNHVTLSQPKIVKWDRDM

B1: Herceptin-IgG2 (wild type IgG2 with the Fab of trastuzumab) (antibody, part only; not given: Fab (trastuzumab), not shown: another chain or arm of the molecule)
Fc: ERKCCVECPPCPAPPVAGPSVFLFPPKPKDTLMISRTPEVTCVVVDVSHEDPEVQFNWYVDGVEVHNAKTKPREEQFNSTFRVVSVLTVVHQDWLNGKEYKCKVSNKGLPAPIEKTISKTKGQPREPQVYTLPPSREEMTKNQVSLTCLVKGFYPSDISVEWESNGQPENNYKTTPPMLDSDGSFFLYSKLTVDKSRWQQGNVFSCSVMHEALHNHYTQKSLSLSPGK
modifications: Glycosylated at N297 (HEK293F expression). The Fc is a disulfide-linked homodimer in the full IgG.
Kd [1]: 2140 nM

B2: Herceptin-IgG2-DHS (V309D, Q311H, N434S) (antibody, part only; not given: trastuzumab Fab, not shown: another chain or arm of the molecule)
Fc: B1 Fc with V90D, Q92H, N215S
modifications: Glycosylated at N297 (HEK293F expression). The Fc is a disulfide-linked homodimer in the full IgG.
fold enhanced KD comparing with wild type IgG2 [2]: 5.7 fold | Kd [3]: 377 nM | koff [3]: 0.086 s⁻¹ | kon [3]: 227000 M⁻¹ s⁻¹

B3: Herceptin-IgG3 (wild type IgG3 with the Fab of trastuzumab) (antibody, part only; not given: trastuzumab Fab; H435 or R435 unclear, not shown: another chain or arm of the molecule)
Fc: ELKTPLGDTTHTCPRCPEPKSCDTPPPCPRCPEPKSCDTPPPCPRCPEPKSCDTPPPCPRCPAPELLGGPSVFLFPPKPKDTLMISRTPEVTCVVVDVSHEDPEVQFKWYVDGVEVHNAKTKPREEQYNSTFRVVSVLTVLHQDWLNGKEYKCKVSNKALPAPIEKTISKTKGQPREPQVYTLPPSREEMTKNQVSLTCLVKGFYPSDIAVEWESSGQPENNYNTTPPMLDSDGSFFLYSKLTVDKSRWQQGNIFSCSVMHEALHNHFTQKSLSLSPGK
modifications: Glycosylated Fc homodimer (HEK293F); one chain is given.
Kd [1]: 4080 nM

The next lines start with the values.

fold enhanced KD comparing with wild type IgG3 [2]: 5.5 fold | Kd [3]: 739 nM | koff [3]: 0.126 s⁻¹ | kon [3]: 170000 M⁻¹ s⁻¹
B4: Herceptin-IgG3-DHS (L309D, Q311H, N434S) (antibody, part only; not given: trastuzumab Fab, not shown: another chain or arm of the molecule)
Fc: B3 Fc with L141D, Q143H, N266S
modifications: Glycosylated Fc homodimer (HEK293F); one chain is given.

fold enhanced KD comparing with wild type IgG4 [2]: 3 fold | Kd [3]: 832 nM | koff [3]: 0.151 s⁻¹ | kon [3]: 281000 M⁻¹ s⁻¹
B5: Herceptin-IgG4-DHS (L309D, Q311H, N434S) (antibody, part only; not given: trastuzumab Fab, not shown: another chain or arm of the molecule)
Fc: ESKYGPPCPSCPAPEFLGGPSVFLFPPKPKDTLMISRTPEVTCVVVDVSQEDPEVQFNWYVDGVEVHNAKTKPREEQFNSTYRVVSVLTVDHHDWLNGKEYKCKVSNKGLPSSIEKTISKAKGQPREPQVYTLPPSQEEMTKNQVSLTCLVKGFYPSDIAVEWESNGQPENNYKTTPPVLDSDGSFFLYSRLTVDKSRWQEGNVFSCSVMHEALHSHYTQKSLSLSLGK
modifications: Glycosylated Fc homodimer (HEK293F); one chain is given.

From patent US20210347891A1
